Experimental data reported in patent publication US12202861B2, “Inducible, tunable, and multiplex human gene regulation using CRISPR-Cpf1” (The General Hospital Corporation, priority 2017, dated 2025).

What was measured:
Assay type in all cases: cell-based, human
HBB [1] = assay: RT-qPCR activation of endogenous HBB gene promoter in HEK293 cells; details: single crRNA
Protocol: (§1) FIGS. 1A-1E. Targeted human endogenous gene regulation using individual crRNAs with dLbCpf1-based activators • (A) Schematic showing direct dLbCpf1-VPR and dLbCpf-p65 activator fusion proteins. • (B) Activities of dLbCpf1-p65 or dLbCpf1-VPR using single crRNAs at three endogenous human genes (HBB, AR, and NPY1R) in human HEK293 cells. Relative activation of the indicated gene promoters was measured by RT-qPCR. Three separate individual crRNAs were targeted within promoter sequence 1 kb upstream of the transcription start site for each gene. Relative mRNA expression is calculated by comparison to the control sample in which no crRNA is expressed. (C) Analysis of various crRNAs targeted to the human CD5 and CD22 promoters. 32 crRNAs (16 for each gene) were designed to target sites located within promoter sequences 1 kb upstream or 500 bps downstream of the TSS of each gene. Repetitive sequences were not targeted. After 72 hours post-transfection, cells were stained with fluorescently labeled antibody for CD5 or CD22 protein and fluorescent-positive cells were quantified by flow cytometry. Error bars represent s.e.m. for three biological replicates. […] (D) Schematic illustrating drug-inducible bi-partite dLbCpf1-based activator fusion proteins. dLbCpf1 is fused to one to four DmrA domains and VPR or p65 is fused to a DmrC domain. Because DmrA and DmrC interact only in the presence of an A/C-heterodimerizer drug (red diamond), the bi-partite activator is only reconstituted in the presence of the drug. (E) Activities of drug-inducible bi-partite dLbCpf1-based activators using single crRNAs at three endogenous human genes (HBB, AR, and NPY1R) in human HEK293 cells. Relative activation of the indicated gene promoters was measured by RT-qPCR. […] Data shown in (B) and (E) represent three biological independent replicates and error bars indicate standard deviation (SD) of three technical replicates.
(§2) (A) Schematic of an expression cassette designed to express multiple gRNAs encoded on a single transcript. The arrows indicate cleavage sites being processed by the RNase activity of dLbCpf1. (B) Schematic illustrating multiplex expression of three crRNAs each targeted to a different endogenous gene promoter in a single cell. (C) Simultaneous activation of three endogenous human genes using crRNAs expressed from a multiplex transcript or from individual transcripts with dLbCpf1-VPR direct fusions (left panel), dLbCpf1-DmrA(×4) and DmrC-VPR fusions (middle panel), and dLbCpf1-DmrA(×4) and DmrC-p65 fusions (right panel). Transcripts were measured in HEK293 cells using RT-qPCR with relative mRNA expression calculated by comparison to the control sample in which no crRNA is expressed. (D) Activities of MST crRNA with different dLbCpf1-based activators in human U20S cells. Graphs showing activation of three endogenous human genes with dLbCpf1-VPR direct fusions, dLbCpf1-DmrA(×4) and DmrC-p65 fusions, and dLbCpf1-DmrA(×4) and DmrC-VPR fusions and crRNAs expressed from a multiplex single transcript (MST) or from transcripts encoding a single crRNA. RNA expression was measured by RT-qPCR and relative expression shown was calculated by comparison to a control sample in which no crRNA is expressed. (E) Schematic illustrating multiplex expression of three crRNAs each targeted to the same endogenous gene promoter in the same cell. (F) Activities of direct dLbCpf1-p65 or dLbCpf1-VPR fusions with sets of three crRNAs expressed from a multiplex transcript or from individual transcripts on the HBB, AR, or NPY1R endogenous gene promoters. Transcripts were measured in HEK293 cells using RT-qPCR with relative mRNA expression calculated by comparison to the control sample in which no crRNA is expressed. (G) Activities of dLbCpf1-DmrA(×4) and DmrC-VPR fusions or with dLbCpf1-DmrA(×4) and DmrC-p65 fusions with sets of three crRNAs expressed from a multiplex transcript or from individual transcripts on the HBB, AR, or NPY1R endogenous gene promoters. […]

AR = assay: RT-qPCR activation of endogenous AR gene promoter in HEK293 cells; details: single crRNA
Protocol: as §1
(A) Schematic of an expression cassette designed to express multiple gRNAs encoded on a single transcript. The arrows indicate cleavage sites being processed by the RNase activity of dLbCpf1. (B) Schematic illustrating multiplex expression of three crRNAs each targeted to a different endogenous gene promoter in a single cell. […] Transcripts were measured in HEK293 cells using RT-qPCR with relative mRNA expression calculated by comparison to the control sample in which no crRNA is expressed. […] RNA expression was measured by RT-qPCR and relative expression shown was calculated by comparison to a control sample in which no crRNA is expressed. […] Transcripts were measured in HEK293 cells using RT-qPCR with relative mRNA expression calculated by comparison to the control sample in which no crRNA is expressed. […]

NPY1R = assay: RT-qPCR activation of endogenous NPY1R gene promoter in HEK293 cells; details: single crRNA
Protocol: as §1, §2

HBB [2] = assay: RT-qPCR activation of HBB in U2OS cells; details: MST crRNAs and single crRNAs
Source text: (A) Schematic of an expression cassette designed to express multiple gRNAs encoded on a single transcript. The arrows indicate cleavage sites being processed by the RNase activity of dLbCpf1. (B) Schematic illustrating multiplex expression of three crRNAs each targeted to a different endogenous gene promoter in a single cell. (C) Simultaneous activation of three endogenous human genes using crRNAs expressed from a multiplex transcript or from individual transcripts with dLbCpf1-VPR direct fusions (left panel), dLbCpf1-DmrA(×4) and DmrC-VPR fusions (middle panel), and dLbCpf1-DmrA(×4) and DmrC-p65 fusions (right panel). Transcripts were measured in HEK293 cells using RT-qPCR with relative mRNA expression calculated by comparison to the control sample in which no crRNA is expressed. […] RNA expression was measured by RT-qPCR and relative expression shown was calculated by comparison to a control sample in which no crRNA is expressed. […] Transcripts were measured in HEK293 cells using RT-qPCR with relative mRNA expression calculated by comparison to the control sample in which no crRNA is expressed. […] Transcripts were measured in HEK293 cells using RT-qPCR with relative mRNA expression calculated by comparison to the control sample in which no crRNA is expressed. […] Cells were collected at various time points and relative mRNA expression levels were measured by RT-qPCR compared to a negative control. […]

[3] = bi-partite with dLbCpf1-DmrA fusions
[4] = bi-partite with dLbCpf1-DmrA fusions, A/C heterodimerizer
[5] = bi-partite, with dLbCpf1 fusions harboring two, three or four DmrA domains

B1: DmrC-p65: CAG-DmrC-NLS-FLAG-P65; DmrC dimerization domain fused to p65 activation domain (SEQ ID NO: 50) (protein)
chain: MGSRILWHEMWHEGLEEASRLYFGERNVKGMFEVLEPLHAMMERGPQTLKETSFNQAYGRDLMEAQEWCRKYMKSGNVKDLLQAWDLYYHVFRRISKGGGSPKKKRKVSSDYKDHDGDYKDHDIDYKDDDDKAAGGGGSGSEASGSGRADALDDFDLDMLGSDALDDFDLDMLGSDALDDFDLDMLGSDALDDFDLDMLINSRSSGSPKKKRKVGSQYLPDTDDRHRIEEKRKRTYETFKSIMKKSPFSGPTDPRPPPRRIAVPSRSSASVPKPAPQPYPFTSSLSTINYDEFPTMVFPSGQISQASALAPAPPQVLPQAPAPAPAPAMVSALAQAPAPVPVLAPGPPQAVAPPAPKPTQAGEGTLSEALLQLQFDDEDLGALLGNSTDPAVFTDLASVDNSEFQQLLNQGIPVAPHTTEPMLMEYPEAITRLVTGAQRPPDPAPAPLGAPGLPNGLLSGDEDFSSIADMDFSALLGSGSGSRDSREGMFLPKPEAGSAISDVFEGREVCQPKRIRPFHPPGSPWANRPLPASLAPTPTGPVHEPVGSLTPAPVPQPLDPAPAVTPEASHLLEDPDEETSQAVKALREMADTVIPQKEEAAICGQMDLSHPPPRGHLDELTTTLESMTEDLNLDSPLTPELNEILDTFLNDECLLHAMHISTGLSIFDTSLF
modifications: misc_feature 1..2016 MMW948: CAG-DmrC-NLS-FLAG-VPR
HBB [1]; [3]
  dependence of maximal activation on A/C heterodimerizer drug: dependent on the presence of A/C heterodimerizer drug
  level of activation somewhat less than that obtained with DmrC-VPR: ~50%
HBB [1]; [4]
  fold activation of transcription: ~20 fold
HBB [1]; [5]
  activation of transcription: could robustly activate transcription
AR; [3]
  dependence of maximal activation on A/C heterodimerizer drug: dependent on the presence of A/C heterodimerizer drug
AR; [4]
  fold activation of transcription: ~25 fold
AR; [5]
  activation of transcription: could robustly activate transcription
NPY1R; [3]
  dependence of maximal activation on A/C heterodimerizer drug: dependent on the presence of A/C heterodimerizer drug
  level of activation somewhat less than that obtained with DmrC-VPR: ~30%
NPY1R; [4]
  fold activation of transcription: ~10 fold
NPY1R; [5]
  activation of transcription: could robustly activate transcription
HBB [2]
  gene activation (relative RNA expression): even greater than in HEK293s
